Experimental data as given in PMC7468209, “The Nucleoid Occlusion Protein SlmA Binds to Lipid Membranes” (mBio, 2020).

Biological target: the molecule itself
Assay: AUC; sedimentation velocity, 5 uM SlmA without SBS, working buffer (50 mM Tris-HCl pH 7.5, 5 mM MgCl2) with 100, 300 or 500 mM KCl, 48,000 rpm, 20 C, absorbance at 230 nm, c(s) in SEDFIT

B1: SlmA (natural protein, E. coli, UniProt P0C093 1-198, looked up)
chain: MAEKQTAKRNRREEILQSLALMLESSDGSQRITTAKLAASVGVSEAALYRHFPSKTRMFDSLIEFIEDSLITRINLILKDEKDTTARLRLIVLLLLGFGERNPGLTRILTGHALMFEQDRLQGRINQLFERIEAQLRQVLREKRMREGEGYTTDETLLASQILAFCEGMLSRFVRSEFKYRPTDDFDARWPLIAAQLQ
modifications: Alexa Fluor 488 on amino groups (0.3-0.6 mol dye per mol protein), only in the tracer fraction (1 uM of 5 uM) of the microdroplet experiments; unlabelled in the sedimentation velocity experiments
notes: SlmA, nucleoid occlusion protein of Escherichia coli; also called nucleoid occlusion protein SlmA; nucleoid occlusion factor SlmA
In the case of B1, the “stoichiometry N” value is reported as 2.
